In test [1] the target is HLA-A*01:01. Briefly: IEDB peptide-MHC binding, purified MHC/competitive/fluorescence; filed as Kd, often an IC50 or EC50 that approximates it; ≥ and ≤ were set here for values at or beyond the usual limits of such assays.
Test [2] concerns the target HLA-A*26:01. Described as above.
The target of test [3] is HLA-A*11:01. Described as above.
Test [4] has as its target HLA-A*03:01. Briefly: IEDB peptide-MHC binding, purified MHC/competitive/fluorescence; ≥ and ≤ were set here for values at or beyond the usual limits of such assays.
Test [5] concerns the target HLA-A*11:01. Described as above.
The target of test [6] is HLA-A*03:01. Briefly: IEDB peptide-MHC binding, purified MHC/competitive/fluorescence; filed as Kd, often an IC50 or EC50 that approximates it; ≥ and ≤ were set here for values at or beyond the usual limits of such assays. The settings on record: source organism: Encephalitozoon cuniculi GB-M1.
Test [7] deals with HLA-A*31:01. Described as above. Conditions: source organism: Encephalitozoon cuniculi GB-M1.
The target of test [8] is HLA-A*02:03. Briefly: IEDB peptide-MHC binding, purified MHC/direct/fluorescence; filed as Kd, often an IC50 or EC50 that approximates it; ≥ and ≤ were set here for values at or beyond the usual limits of such assays. Conditions: source organism: Rio Mamore hantavirus.
The target of test [9] is HLA-A*02:11. Described as above. Conditions: source organism: Rio Mamore hantavirus.
Test [10] concerns the target HLA-A*02:12. The description is as above. The settings on record: source organism: Rio Mamore hantavirus.
The target in test [11] is HLA-A*02:16. Described as above. The settings on record: source organism: Rio Mamore hantavirus.
Test [12] addresses HLA-A*02:19. The description is as above. Conditions: source organism: Rio Mamore hantavirus.
Test [13] has as its target HLA-A*03:01. The description is as above.
For test [14], the target named is HLA-A*29:02. Described as above. The settings on record: source organism: Rio Mamore hantavirus.
Test [15] addresses HLA-A*68:02. The description is as above. Conditions: source organism: Rio Mamore hantavirus.
Test [16] deals with HLA-A*02:01. Briefly: IEDB peptide-MHC binding, purified MHC/competitive/fluorescence; filed as Kd, often an IC50 or EC50 that approximates it; ≥ and ≤ were set here for values at or beyond the usual limits of such assays. The settings on record: source organism: Lechiguanas virus.
In test [17] the target is HLA-A*24:03. The description is as above. Conditions: source organism: Lechiguanas virus.
For test [18], the target named is HLA-A*69:01. The description is as above. The settings on record: source organism: Lechiguanas virus.
The target in test [19] is HLA-B*15:17. The description is as above. The settings on record: source organism: Lechiguanas virus.
For test [20], the target named is HLA-B*18:01. The test is described as above. Conditions: source organism: Lechiguanas virus.
In test [21] the target is HLA-B*27:03. Described as above. The settings on record: source organism: Lechiguanas virus.
The target in test [22] is HLA-B*39:01. Described as above. The settings on record: source organism: Lechiguanas virus.
In test [23] the target is HLA-B*46:01. Described as above. Conditions: source organism: Lechiguanas virus.
Test [24] has as its target HLA-B*51:01. The test is described as above. The settings on record: source organism: Lechiguanas virus.
Test [25] addresses HLA-B*57:01. Described as above. The settings on record: source organism: Lechiguanas virus.
In test [26] the target is HLA-A*02:01. Briefly: IEDB peptide-MHC binding, purified MHC/competitive/fluorescence; ≥ and ≤ were set here for values at or beyond the usual limits of such assays.
Test [27] deals with HLA-B*35:01. Briefly: IEDB peptide-MHC binding, purified MHC/direct/fluorescence; filed as Kd, often an IC50 or EC50 that approximates it; ≥ and ≤ were set here for values at or beyond the usual limits of such assays.
For test [28], the target named is HLA-B*51:01. The description is as above. The settings on record: source organism: West Nile virus.
Test [29] addresses HLA-A*01:01. The description is as above. The settings on record: source organism: Yersinia pestis Nepal516.
Test [30] addresses HLA-A*02:01. The description is as above. Conditions: source organism: Yersinia pestis.
The target in test [31] is HLA-A*11:01. The test is described as above. The settings on record: source organism: Yersinia pestis Nepal516.
The target in test [32] is HLA-A*24:03. The description is as above. Conditions: source organism: Yersinia pestis.
In test [33] the target is HLA-A*26:01. The test is described as above. The settings on record: source organism: Yersinia pestis Nepal516.
Test [34] concerns the target HLA-A*31:01. The test is described as above. The settings on record: source organism: Yersinia pestis Nepal516.
The target of test [35] is HLA-A*69:01. Described as above. Conditions: source organism: Yersinia pestis Nepal516.
The target in test [36] is HLA-B*07:02. The description is as above. Conditions: source organism: Yersinia pestis Nepal516.
In test [37] the target is HLA-B*08:01. The test is described as above. Conditions: source organism: Yersinia pestis Nepal516.
For test [38], the target named is HLA-B*15:01. The test is described as above. The settings on record: source organism: Yersinia pestis.
The target in test [39] is HLA-B*27:05. The test is described as above. The settings on record: source organism: Yersinia pestis Nepal516.
In test [40] the target is HLA-B*40:01. The description is as above. Conditions: source organism: Yersinia pestis Nepal516.
The target of test [41] is HLA-B*44:02. The description is as above. Conditions: source organism: Yersinia pestis Nepal516.
Test [42] addresses HLA-B*58:01. Described as above. The settings on record: source organism: Yersinia pestis Nepal516.
Test [43] addresses HLA-B*15:01. Briefly: IEDB peptide-MHC binding, purified MHC/competitive/fluorescence; ≥ and ≤ were set here for values at or beyond the usual limits of such assays. Conditions: source organism: Sudan ebolavirus.
Setting [44] is: source organism: Salmonella enterica subsp. enterica serovar Typhi.
The mark [45] stands for this setting: source organism: Sudan ebolavirus.
Setting [46] is: source organism: Zaire ebolavirus.
Setting [47] is: source organism: Vaccinia virus WR.
Where [48] appears, read: source organism: Vaccinia virus.

These results are taken from the Immune Epitope Database (IEDB).

As a reminder, the Kd is the concentration at which binding is half-saturated. Higher therefore signals weaker binding. Broadly, the IC50 is the concentration that inhibits the measured activity by half. High values mean lower potency, low ones higher potency.

MVEASGGRY: the Kd in test [1] (setting [44]) is 0.122 µM; in test [2] (setting [44]) it was 1420 nM.

Sequence MVAYMLER gave a Kd in [3] (source organism: Paramagnetospirillum magnetotacticum MS-1) of 3250 nM.

For the sequence GVRGFPRCR, the values for the IC50 in [4] (setting [45]) and in [5] (setting [45]) were 1.12 µM and 33.2 µM, respectively.

Take TQVEQHHRR: the IC50 was no less than 138 µM in [4] (setting [46]) and 1.67 µM in [5] (setting [46]).

As to CVNDGGLFY, the results for the Kd in [6], in test [3] (source organism: Encephalitozoon cuniculi GB-M1) and in test [7] were 1010 nM, 110 nM and 692 nM, respectively.

In the case of LQPSDTLLF, the Kd in [8], in [9], in [10], in [11], in [12] and in test [13] (source organism: Rio Mamore hantavirus) was no less than 20 µM each time. Also, the Kd in test [14] was no less than 20 µM; in [15] it was no less than 20 µM; in [16], no less than 20 µM; in test [17], 4.9 nM; in test [2] (source organism: Lechiguanas virus), no less than 20000 nM; in [18], no less than 20 µM. Further, the Kd in test [19], in test [20], in test [21], in test [22], in test [23] and in test [24] was no less than 20 µM each time. For the same sequence, the Kd in [25] was no less than 20 µM.

Consider AGLITGGRR, for which the IC50 in test [4] (setting [46]) worked out at 69.9 µM; in [5] (setting [46]) it was 6.55 µM.

Turning to AFYTRVLKP, the values for the IC50 in [4] (setting [47]) and in test [5] (setting [47]) were no less than 202 µM and 24.2 µM, respectively.

On to FTDPEIVAE, for which the Kd in [1] (source organism: Escherichia coli O139:H28 str. E24377A) is no less than 20 µM.

As for SLMEMDYER, the IC50 in test [26] (setting [48]) is 2.2 µM; in test [4] (setting [48]), no less than 155 µM; in test [5] (setting [48]), 1.9 µM.

As to QPAFMVASF, the Kd in [27] (source organism: West Nile virus) is 7 nM; in test [28], no less than 20 µM.

Sequence ITDRLFFK yielded a Kd in [3] (source organism: Influenza A virus (A/California/04/2009(H1N1))) of 175 nM.

Regarding YLHRDIFDI, the dissociation constant (Kd) in [29] is no less than 20 µM; in test [30], 36.5 nM; in [13] (source organism: Yersinia pestis Nepal516), no less than 20 µM; in [31], no less than 20 µM; in [32], no less than 20 µM; in [33] it was no less than 20 µM. The dissociation constant Kd in [34] was no less than 20 µM; in test [35] it was no less than 20 µM; in test [36] it was no less than 20 µM; in [37] it was no less than 20 µM; in test [38] it was 8.64 µM; in test [39], no less than 20 µM. The Kd in test [27] (source organism: Yersinia pestis) was 113 nM; in test [40], no less than 20 µM; in [41] it was no less than 20 µM; in test [42], no less than 20 µM.

Regarding SMIYFFHHY, in test [1] (source organism: Homo sapiens), the Kd is no less than 20 µM.

For VIYRGVNFA, the IC50 is 3.89 µM in test [26] (setting [45]), 5.02 µM in test [4] (setting [45]), 25.1 µM in test [5] (setting [45]) and no less than 89.1 µM in test [43].
